In the assay the target is T1, GST (glutathione S-transferase) alone (UniProt P08515 1-218 = GST).
T1 construct: Control probe in the west western blots
Briefly: west western blot of his-tagged WTIP fragments (E. coli lysate) probed with GST.

T1 sequence (P08515 whole entry): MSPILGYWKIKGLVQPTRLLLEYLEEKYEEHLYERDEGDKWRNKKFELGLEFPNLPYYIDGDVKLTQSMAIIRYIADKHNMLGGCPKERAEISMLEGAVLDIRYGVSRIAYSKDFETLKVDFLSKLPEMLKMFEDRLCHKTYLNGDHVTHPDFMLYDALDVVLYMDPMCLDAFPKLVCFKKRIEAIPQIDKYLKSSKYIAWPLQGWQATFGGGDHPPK

B1: WTIP 1-178, polypeptide containing the WW domain at the N-terminal end of WTIP with a histidine tag at the C-terminal (other)
chain: MRPGTGAERGGLMVSEMESHPPSQGPGDGERRLSGSSLCSGSWVSADGFLRRRPSMGHPGMHYAPMGMHPMGQRANMPPVPHGMMPQMMPPMGGPPMGQMPGMMSSVMPGMMMSHMSQASMQPALPPGVNSMDVAAGTASGAKSMWTEHKSPDGRTYYYNTETKQSTWEKPDDLKTPA
notes: Expressed in E. coli; whole-cell lysate run on SDS-PAGE and blotted; not shown: C-terminal his tag and XhoI junction residues from pET-21b(+)
As to B1, the binding result is reported as “no binding”.

B2: WTIP 1-98, polypeptide containing no WW domains with a histidine tag at the C-terminal (other)
chain: MRPGTGAERGGLMVSEMESHPPSQGPGDGERRLSGSSLCSGSWVSADGFLRRRPSMGHPGMHYAPMGMHPMGQRANMPPVPHGMMPQMMPPMGGPPMG
notes: Expressed in E. coli; whole-cell lysate run on SDS-PAGE and blotted; also called HYPA/FBP11 amino acids 1-98; mutant containing no WW domain; not shown: C-terminal his tag and XhoI junction residues from pET-21b(+)
Take B2: the binding result is recorded as “no binding”.

The values above are taken from patent US20030162220A1 (HARUO SUGIYAMA, published 2003).
